From paper PMC5121590, “Antibody-antigen kinetics constrain intracellular humoral immunity” (Scientific Reports, 2016)
Numbering of substitutions follows the chain as printed. In names and notes the source's numbering stands.

Tests used:
[1] = target: T1, recombinant AdV5 hexon protein (Human adenovirus C serotype 5 (HAdV-5), UniProt P04133); experiment: cell-based or functional assay
[2] = target: T1, recombinant AdV5 hexon protein; experiment: SPR; conditions: both partners purified
[3] = target: T1, recombinant AdV5 hexon protein; experiment: SPR; conditions: both partners purified; remark: listed apart in the source
[4] = target: the molecule itself; experiment: crystal structure; 9C12 Fab and hexon mixed 1:1 to a 5 mg/ml complex; crystals in 15% MPD, 5% PEG 4K, 0.1 M imidazole pH 8; 2.7 Å

B1: recombinant humanized IgG1 version of 9C12 (h9C12), wild type (antibody, V domains shown)
VH: VQLKQSGPGLLQPSQRLSITCTVSGFSLGRYGVHWIRQSPGKGLEWLGVIWRGGTTDYNAVFMSRLSINKDDSKSQVFFTMNSLRPDDTAIYYCARQGSNFPLAYWGQGTLVTVSA
VL: NIVMTQTPKFLLVSIGDSITITCKASQSVTNDAAWYQKKPGQSPQLLIYQASTRYTGVPDRFSGSGYGTDFTFTISAVQAEDLAVYFCHQDYSSPLTFGAGTKLELK
[1]
  neutralization of Adv5 infection in HEK293T cells: ~25 fold

B2: h9C12 Fab W51E (Fab, V domains shown)
VH: B1 VH with W51E
VL: B1 VL
notes: source: HEK293E, transiently co-transfected, purified (CaptureSelect CH1, SEC Superdex 75)
[2]
  Kd: 16900 nM

B3: h9C12 Fab G29R/R30S (Fab, V domains shown)
VH: B1 VH with G29R, R30S
VL: B1 VL
notes: as for B2
[2]
  Kd: 92.8 nM
  koff: 0.0049 s⁻¹
  kon: 53000 M⁻¹ s⁻¹

B4: h9C12 Fab G53P (Fab, V domains shown)
VH: B1 VH with G53P
VL: B1 VL
notes: as for B2
[2]
  Kd: 330 nM
  koff: 0.079 s⁻¹
  kon: 239000 M⁻¹ s⁻¹

B5: h9C12 Fab G98C/S99H (Fab, V domains shown)
VH: B1 VH with G98C, S99H
VL: B1 VL
notes: as for B2
[2]
  Kd: 288 nM
  koff: 0.0052 s⁻¹
  kon: 18000 M⁻¹ s⁻¹

B6: h9C12 Fab N100A (Fab, V domains shown)
VH: B1 VH with N100A
VL: B1 VL
notes: as for B2
[2]
  Kd: 0.9 nM
  koff: 0.00085 s⁻¹
  kon: 889000 M⁻¹ s⁻¹

B7: h9C12 Fab Q97A/S99A/F101A/L103A (Fab, V domains shown)
VH: B1 VH with Q97A, S99A, F101A, L103A
VL: B1 VL
notes: also called combined alanine mutations in H3; source: HEK293E, transiently co-transfected, purified (CaptureSelect CH1, SEC Superdex 75)
[3]
  binding result: no binding

B8: 9C12 Fab (original mouse format, SPR) (Fab, V domains shown)
VH: B1 VH
VL: B1 VL
notes: also called mouse WT 9C12; source: gene fragment synthesized as cDNA; host stated only for the h9C12 variants (HEK293E)
[2]
  Kd: 1 nM
  koff: 0.00045 s⁻¹
  kon: 447000 M⁻¹ s⁻¹

B9: h9C12 Fab Q97A (Fab, V domains shown)
VH: B1 VH with Q97A
VL: B1 VL
notes: as for B2
[2]
  Kd: 462 nM

B10: h9C12 Fab G98P (Fab, V domains shown)
VH: B1 VH with G98P
VL: B1 VL
notes: as for B2
[3]
  binding result: no binding

B11: h9C12 Fab T55S (Fab, V domains shown)
VH: B1 VH with T55S
VL: B1 VL
notes: as for B2
[2]
  Kd: 1.2 nM
  koff: 0.00095 s⁻¹
  kon: 795000 M⁻¹ s⁻¹

B12: h9C12 Fab (wild type) (Fab, V domains shown)
VH: B1 VH
VL: B1 VL
notes: also called WT h9C12; humanized 9C12; source: HEK293E, transiently co-transfected, purified (CaptureSelect CH1, SEC Superdex 75)
[2]
  Kd: 0.8 nM
  koff: 0.00052 s⁻¹
  kon: 635000 M⁻¹ s⁻¹

B13: h9C12 Fab Q97R (Fab, V domains shown)
VH: B1 VH with Q97R
VL: B1 VL
notes: as for B2
[3]
  binding result: no binding

B14: h9C12 Fab G32P (Fab, V domains shown)
VH: B1 VH with G32P
VL: B1 VL
notes: as for B2
[3]
  binding result: no binding

B15: full-length Adv5 hexon protein (natural protein)
chain: MATPSMMPQWSYMHISGQDASEYLSPGLVQFARATETYFSLNNKFRNPTVAPTHDVTTDRSQRLTLRFIPVDREDTAYSYKARFTLAVGDNRVLDMASTYFDIRGVLDRGPTFKPYSGTAYNALAPKGAPNPCEWDEAATALEINLEEEDDDNEDEVDEQAEQQKTHVFGQAPYSGINITKEGIQIGVEGQTPKYADKTFQPEPQIGESQWYETEINHAAGRVLKKTTPMKPCYGSYAKPTNENGGQGILVKQQNGKLESQVEMQFFSTTEATAGNGDNLTPKVVLYSEDVDIETPDTHISYMPTIKEGNSRELMGQQSMPNRPNYIAFRDNFIGLMYYNSTGNMGVLAGQASQLNAVVDLQDRNTELSYQLLLDSIGDRTRYFSMWNQAVDSYDPDVRIIENHGTEDELPNYCFPLGGVINTETLTKVKPKTGQENGWEKDATEFSDKNEIRVGNNFAMEINLNANLWRNFLYSNIALYLPDKLKYSPSNVKISDNPNTYDYMNKRVVAPGLVDCYINLGARWSLDYMDNVNPFNHHRNAGLRYRSMLLGNGRYVPFHIQVPQKFFAIKNLLLLPGSYTYEWNFRKDVNMVLQSSLGNDLRVDGASIKFDSICLYATFFPMAHNTASTLEAMLRNDTNDQSFNDYLSAANMLYPIPANATNVPISIPSRNWAAFRGWAFTRLKTKETPSLGSGYDPYYTYSGSIPYLDGTFYLNHTFKKVAITFDSSVSWPGNDRLLTPNEFEIKRSVDGEGYNVAQCNMTKDWFLVQMLANYNIGYQGFYIPESYKDRMYSFFRNFQPMSRQVVDDTKYKDYQQVGILHQHNNSGFVGYLAPTMREGQAYPANFPYPLIGKTAVDSITQKKFLCDRTLWRIPFSSNFMSMGALTDLGQNLLYANSAHALDMTFEVDPMDEPTLLYVLFEVFDVVRVHRPHRGVIETVYLRTPFSAGNATT
notes: also called human adenovirus 5 hexon; source: purified from Adv5-infected cells (CsCl-gradient, size exclusion)
[4]
  binding result: binds
